The target in this experiment is T1, human IL-2Rβ (CD122 protein, Fc Tag) (27-239) (human, UniProt P14784 27-239).
T1 construct: range 27-239; Bought protein; also called hu-IL-2Rβ subunit; IL-2Rβ subunit; not shown: Fc tag of the bought protein
T1 sequence (looked up): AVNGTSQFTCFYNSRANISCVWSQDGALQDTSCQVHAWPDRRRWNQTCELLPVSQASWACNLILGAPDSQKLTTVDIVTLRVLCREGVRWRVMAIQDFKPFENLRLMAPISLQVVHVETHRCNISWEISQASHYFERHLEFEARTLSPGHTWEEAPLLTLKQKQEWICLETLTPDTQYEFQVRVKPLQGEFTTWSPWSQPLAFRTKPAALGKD
Description: phage ELISA competition. The gist of the method: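 In this competitive binding ELISA, test ligands compete with a phage tracer for human IL-2Rβ-Fc, and IC50 is calculated from the absorbance signal over the ligand dilution series. A 50 μL volume of phage tracer was added without washing and left for 45 min at 4° C. TMB was used to detect bound phage for 1 to 15 min at 25° C, after which stop solution was added and absorbance was read at 450 nm.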
On the technique in general: In an ELISA, binding on a coated surface is turned into a signal by an enzyme label.

Bridge positions count the residues as written; N and C are the ends. Ends that are not written are not given here.

B1: SEQ ID NO 2764 (peptide)
peptide: QTWYLPCWMAKLGELCDLGERD
Turning to B1, the IC50 (in general, the concentration that inhibits the measured activity by half) is less than 100 µM.

B2: SEQ ID NO 2740 (peptide)
peptide: ARGEYRWFPCWMARLGELCDLE
Molecule B2 returned a half-maximal inhibitory concentration (IC50) of less than 100 µM.

B3: SEQ ID NO 2731 (peptide)
peptide: ESEGRGWYPCWNALLGELCDLE
With B3, the IC50 was less than 100 µM.

B4: SEQ ID NO 2719 (peptide)
peptide: MYPCWIAHLGELCDLD
With B4, the 50% inhibitory concentration (IC50) was less than 100 µM.

B5: SEQ ID NO 2722 (peptide)
peptide: WHPCWMAQVGEVCDLD
For B5, the IC50 was less than 100 µM.

B6: SEQ ID NO 2752 (peptide)
peptide: WLPCWLAPLGDLCDMDMSAVMN
The molecule B6 showed a 50% inhibitory concentration (IC50) of less than 100 µM.

B7: SEQ ID NO 2751 (peptide)
peptide: FYPCWAAHLGDLCDLEYQEAGP
As for B7, the concentration for half-maximal inhibition (IC50) is less than 100 µM.

B8: SEQ ID NO 2704 (peptide)
peptide: YAEWYPCWMARVGEVCDLEVTP
B8 came in with an IC50 of less than 100 µM.

B9: SEQ ID NO 2753 (peptide)
peptide: WRPCWMAHLGDLCDLEMANENP
B9 showed an IC50 of less than 100 µM.

B10: SEQ ID NO 2732 (peptide)
peptide: RWTQAQWYPCWLAQLGELCDLE
Consider B10, for which the concentration for half-maximal inhibition (IC50) was less than 100 µM.

B11: SEQ ID NO 2706 (peptide)
peptide: WYPCWMAQLGELCDMD
For B11, the concentration for half-maximal inhibition (IC50) was less than 100 µM.

B12: SEQ ID NO 2724 (peptide)
peptide: WWPCSIARLGQLCDLD
For B12, the IC50 is less than 100 µM.

B13: SEQ ID NO 2723 (peptide)
peptide: WYPCWLASLGEVCDLE
Take B13: the IC50 was less than 100 µM.

B14: SEQ ID NO 2733 (peptide)
peptide: LHAGRWNPCWLAQLGELCDLE
In turn, B14 gave an IC50 of less than 100 µM.

B15: SEQ ID NO 2726 (peptide)
peptide: WYPCWLAQLGELCDAE
For the molecule B15, the IC50 is less than 100 µM.

B16: SEQ ID NO 2762 (peptide)
peptide: SQRWYPCWVAHLGELCDLEGVV
In turn, B16 displayed an IC50 of less than 100 µM.

B17: SEQ ID NO 2721 (peptide)
peptide: WLPCYMAQLGDLCDLE
The molecule B17 came in with a half-maximal inhibitory concentration (IC50) of less than 100 µM.

B18: SEQ ID NO 2761 (peptide)
peptide: RPPWYPCWMARLGEVCDMDIML
B18 registered a half-maximal inhibitory concentration (IC50) of less than 100 µM.

B19: SEQ ID NO 2713 (peptide)
peptide: SGTGPAWYPCFLASLGQLCDLE
As to B19, the 50% inhibitory concentration (IC50) was less than 100 µM.

B20: SEQ ID NO 2746 (peptide)
peptide: WYPCWLAHLGELCDLDWKGRND
As to B20, the 50% inhibitory concentration (IC50) was less than 100 µM.

B21: SEQ ID NO 2735 (peptide)
peptide: DMFTHRWYPCSMAKLGELCDLE
The molecule B21 yielded an IC50 of less than 100 µM.

B22: SEQ ID NO 2705 (peptide)
peptide: RSGDKAFFPCWLAQLGDLCDLD
With B22, the IC50 is less than 100 µM.

B23: SEQ ID NO 2734 (peptide)
peptide: LSSKGWYPCWKARLGDLCDLE
modifications: disulfide 9-18 (inferred)
As for B23, the IC50 is less than 100 µM.

B24: SEQ ID NO 2739 (peptide)
peptide: AMARRYLPCWIAKLGELCELD
B24: the IC50 was less than 100 µM.

B25: SEQ ID NO 2759 (peptide)
peptide: VDEFYPCSMAGLGELCDLERQN
Take B25: the IC50 is less than 100 µM.

B26: SEQ ID NO 2757 (peptide)
peptide: ARTWWPCWRAKLGELCDLVVPE
Regarding B26, the IC50 was less than 100 µM.

B27: SEQ ID NO 2743 (peptide)
peptide: IERAWEWRPCWLASVGELCDLE
modifications: disulfide 10-19 (inferred)
Take B27: the IC50 is less than 100 µM.

B28: SEQ ID NO 2756 (peptide)
peptide: TEMWYPCWMAYQGELCDLDMTY
Molecule B28 yielded an IC50 of less than 100 µM.

B29: SEQ ID NO 2708 (peptide)
peptide: TESWYPCWLANLGDLCDLEWSA
modifications: disulfide 7-16 (inferred)
With B29, the 50% inhibitory concentration (IC50) was less than 100 µM.

B30: SEQ ID NO 2744 (peptide)
peptide: VASERFYPCWIARLGELCDVE
B30 had an IC50 of less than 100 µM.

B31: SEQ ID NO 2720 (peptide)
peptide: WYPCSIASLGELCDLE
The molecule B31 had a half-inhibitory concentration (IC50) of less than 100 µM.

B32: SEQ ID NO 2717 (peptide)
peptide: RYPCWIAQLGELCDLD
Consider B32, for which the IC50 was less than 100 µM.

B33: SEQ ID NO 2760 (peptide)
peptide: AWDWYPCSVAALGEICDLDIQD
In the case of B33, the IC50 is less than 100 µM.

B34: SEQ ID NO 2727 (peptide)
peptide: WKPCWMALLGELCDLE
Consider B34, for which the 50% inhibitory concentration (IC50) was less than 100 µM.

B35: SEQ ID NO 2737 (peptide)
peptide: NVTYTQWFPCWLARLGELCDLV
modifications: disulfide 10-19 (inferred)
Molecule B35 registered an IC50 of less than 100 µM.

B36: SEQ ID NO 2714 (peptide)
peptide: WYPCWMARMGELCDLE
In turn, B36 yielded an IC50 of less than 100 µM.

B37: SEQ ID NO 2750 (peptide)
peptide: LPCWIAQLGDLCDLEPEPSPE
B37 showed a concentration for half-maximal inhibition (IC50) of less than 100 µM.

B38: SEQ ID NO 2747 (peptide)
peptide: WYPCWRAQLGELCDLVDLGSHL
On to B38, for which the IC50 was less than 100 µM.

B39: SEQ ID NO 2755 (peptide)
peptide: WWPCWLAQLGELCDLEVNGSLI
Molecule B39 displayed a 50% inhibitory concentration (IC50) of less than 100 µM.

B40: SEQ ID NO 2710 (peptide)
peptide: WHPCWMARLGELCDLD
The molecule B40 registered an IC50 of less than 100 µM.

B41: SEQ ID NO 2707 (peptide)
peptide: RVSYPCWLARLGELCDMDLEE
B41 showed an IC50 of less than 100 µM.

B42: SEQ ID NO 2730 (peptide)
peptide: LGSKRQWYPCWVAHLGELCDLE
For the molecule B42, the 50% inhibitory concentration (IC50) is less than 100 µM.

B43: SEQ ID NO 2712 (peptide)
peptide: KNGPKSWYPCWMAQVGDLCDLD
On to B43, for which the IC50 is less than 100 µM.

B44: SEQ ID NO 2729 (peptide)
peptide: EEQSRGFLPCWMALLGELCDLD
In turn, B44 yielded an IC50 of less than 100 µM.

B45: SEQ ID NO 2742 (peptide)
peptide: FRVSRDWFPCWMAQLGEVCDLE
For B45, the 50% inhibitory concentration (IC50) is less than 100 µM.

B46: SEQ ID NO 2709 (peptide)
peptide: WLPCWMADVGDLCDLD
modifications: disulfide 4-13 (inferred)
As for B46, the half-maximal inhibitory concentration (IC50) was less than 100 µM.

B47: SEQ ID NO 2749 (peptide)
peptide: WTPCWIAQLGELCDLEGRHGTV
B47 yielded an IC50 of less than 100 µM.

B48: SEQ ID NO 2758 (peptide)
peptide: HQGFYSCRLARLGELCDLDTGW
As for B48, the IC50 is less than 100 µM.

B49: SEQ ID NO 2736 (peptide)
peptide: MTDRAFWNPCWVARLGELCDLD
Molecule B49 gave a concentration for half-maximal inhibition (IC50) of less than 100 µM.

B50: SEQ ID NO 2711 (peptide)
peptide: QGTKWHWNPCWMAQLGELCDLD
modifications: disulfide 10-19 (inferred)
Regarding B50, the IC50 is less than 100 µM.

B51: SEQ ID NO 2715 (peptide)
peptide: WLPCWRAQLGQLCDLD
B51 had a half-inhibitory concentration (IC50) of less than 100 µM.

B52: SEQ ID NO 2765 (peptide)
peptide: EPRWYPCWMAQMGELCDMEMSD
modifications: disulfide 7-16 (inferred)
With B52, the IC50 was less than 100 µM.

B53: SEQ ID NO 2716 (peptide)
peptide: LFPCWLAQLGELCDLE
Molecule B53 yielded a half-maximal inhibitory concentration (IC50) of less than 100 µM.

B54: SEQ ID NO 2748 (peptide)
peptide: WSPCWMASLGDLCDLEETRQTE
modifications: disulfide 4-13 (inferred)
B54 had a 50% inhibitory concentration (IC50) of less than 100 µM.

B55: SEQ ID NO 2754 (peptide)
peptide: WYPCWLAQLGEVCDLDDGGGVF
Molecule B55 gave a 50% inhibitory concentration (IC50) of less than 100 µM.

B56: SEQ ID NO 2763 (peptide)
peptide: KGSWQPCWFAKLGELCDLHPTS
Molecule B56 displayed an IC50 of less than 100 µM.

B57: SEQ ID NO 2728 (peptide)
peptide: RYPCWRAKLGELCDLD
Consider B57, for which the half-inhibitory concentration (IC50) was less than 100 µM.

B58: SEQ ID NO 2741 (peptide)
peptide: YLERSRWYPCFIAQLGELCDLE
B58 came in with an IC50 of less than 100 µM.

Source of the values: patent US20220119492A1 (MEDIKINE, published 2022).
